Data taken from PMC12507091, “The CsWRKY50-CsREM1-CsTSⅠ module inhibits theanine biosynthesis in tea plants under drought stress”.

Assays:
CsWRKY50-GST = CsWRKY50-GST (Camellia sinensis); assay: EMSA; not stated (EMSA protocol per Zhu et al. 2024); conditions: protein: recombinant; tags: GST (pGEX-4T, N-terminal by vector); blunt
CsREM1-GST = biological target: T1, CsREM1-GST (Camellia sinensis); assay: as above; conditions: protein: recombinant; tags: GST (pGEX-4T, N-terminal by vector); blunt
T1 chain: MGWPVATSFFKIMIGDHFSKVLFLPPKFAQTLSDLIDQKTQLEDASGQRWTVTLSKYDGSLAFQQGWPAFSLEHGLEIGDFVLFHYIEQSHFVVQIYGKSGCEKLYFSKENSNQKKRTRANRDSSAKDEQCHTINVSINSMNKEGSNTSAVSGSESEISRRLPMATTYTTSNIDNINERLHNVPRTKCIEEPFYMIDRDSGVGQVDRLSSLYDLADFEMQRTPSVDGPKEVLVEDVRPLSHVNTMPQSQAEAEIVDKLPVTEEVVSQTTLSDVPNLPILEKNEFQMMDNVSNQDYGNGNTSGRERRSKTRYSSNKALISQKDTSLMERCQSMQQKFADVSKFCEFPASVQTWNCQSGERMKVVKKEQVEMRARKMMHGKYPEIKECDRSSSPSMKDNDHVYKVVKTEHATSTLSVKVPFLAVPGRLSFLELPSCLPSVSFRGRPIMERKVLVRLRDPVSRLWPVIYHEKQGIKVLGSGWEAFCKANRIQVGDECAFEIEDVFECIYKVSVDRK

Sequence of CsWRKY50-GST (Camellia sinensis) (chain, as listed by the source): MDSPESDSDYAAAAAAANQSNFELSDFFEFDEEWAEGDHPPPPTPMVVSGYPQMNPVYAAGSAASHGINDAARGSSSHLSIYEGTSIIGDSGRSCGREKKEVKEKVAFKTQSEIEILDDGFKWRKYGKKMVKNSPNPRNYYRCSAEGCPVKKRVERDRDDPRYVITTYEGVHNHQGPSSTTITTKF

B1: CsREM1 promoter Probe (dsDNA)
DNA 1: TTTTGTCTATGTTTTGACTTACTAATAATT
DNA 2: AATTATTAGTAAGTCAAAACATAGACAAAA
binding result (CsWRKY50-GST): binds

B2: CsTSI promoter Probe-2 (dsDNA)
DNA 1: TTACAACATGCTACACAGACTCGTAAA
DNA 2: TTTACGAGTCTGTGTAGCATGTTGTAA
binding result (CsREM1-GST): binds

B3: CsTSI promoter Probe-1 (dsDNA)
DNA 1: TATGTAATTTTATGTAGAGTTATACAT
DNA 2: ATGTATAACTCTACATAAAATTACATA
binding result (CsREM1-GST): binds
